The results in this text go back to patent US11814435B2, “Therapeutic antibodies and their uses” (PFIZER INC., priority 2015, dated 2023).

For one assay, the target named is T1, hBCMA (human BCMA) (Homo sapiens, UniProt Q02223).
T1 sequence (Q02223 1-184): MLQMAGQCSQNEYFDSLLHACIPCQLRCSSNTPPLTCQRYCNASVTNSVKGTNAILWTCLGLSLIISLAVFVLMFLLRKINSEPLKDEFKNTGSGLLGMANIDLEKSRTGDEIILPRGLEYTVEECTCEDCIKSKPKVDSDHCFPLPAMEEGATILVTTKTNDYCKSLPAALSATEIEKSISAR
The experiment in a line: Kinetics and affinity of hBCMA/human IgG interactions by SPR (Bio-Rad Proteon XPR36). The assay is classed as binding. The conditions noted are these: human BCMA, 37° C. Summed up:
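Kinetic constants and affinity come from fitting double-referenced sensorgrams to a 1:1 Langmuir model with mass transport. Antigen flowed over amine-immobilized IgGs in five rising injections up to 50 nM, two minutes apiece, then a 2 h dissociation; runs at 37° C. or 25° C.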
(In general: In SPR one partner is held on a chip, and binding of the other changes the refractive index at the surface.)

The subject of the next assay is Cyno BCMA. Briefly: Kinetics and affinity of cyno BCMA/human IgG interactions by SPR (Bio-Rad Proteon XPR36). In kind it is binding, cynomolgus. The note with it: 37° C.

B1: COMBO_Rd4_0.6 nM_C09: anti-BCMA antibody (antibody, V domains shown)
VH: EVQLLESGGGLVQPGGSLRLSCAASGFTFSSYPMSWVRQAPGKGLEWVSAIGGSGGSLPYADSVKGRFTISRDNSKNTLYLQMNSLRAEDTAVYYCARYWPMDIWGQGTLVTVSS
VL: EIVLTQSPGTLSLSPGERATLSCRASQSVSSTYLAWYQQKPGQAPRLLMYDASIRATGIPDRFSGSGSGTDFTLTISRLEPEDFAVYYCQQYQEWPLTFGQGTKVEIK
With B1, in the assay with hBCMA (human BCMA), the “ka Human” value stood at 1.04e+07 M⁻¹ s⁻¹ and the “kd Human” value is 0.000319 s⁻¹. For the same molecule, in the assay with Cyno BCMA, the “ka Cyno” value amounted to 3.77e+06 M⁻¹ s⁻¹ and the “kd Cyno” value amounted to 0.000346 s⁻¹.

B2: P5A2_VHVL: anti-BCMA antibody (antibody, V domains shown)
VH: EVQLLESGGGLVQPGGSLRLSCAASGFTFSSYAMNWVRQAPGKGLEWVSAISDSGGSTYYADSVKGRFTISRDNSKNTLYLQMNSLRAEDTAVYYCARYWPMDIWGQGTLVTVSS
VL: EIVLTQSPGTLSLSPGERATLSCRASQSVSSSYLAWYQQKPGQAPRLLMYDASIRATGIPDRFSGSGSGTDFTLTISRLEPEDFAVYYCQQYGSWPLTFGQGTKVEIK
As to B2, in the assay with hBCMA (human BCMA), the “ka Human” value is 6.96e+06 M⁻¹ s⁻¹ and the “kd Human” value came to 0.0387 s⁻¹. Also, in the assay with Cyno BCMA, the “ka Cyno” value was found to be 1.61e+06 M⁻¹ s⁻¹ and the “kd Cyno” value amounted to 0.0164 s⁻¹.

B3: A02_Rd4_6 nM_C03: anti-BCMA antibody (antibody, V domains shown)
VH: EVQLLESGGGLVQPGGSLRLSCAASGFTFSSYAMNWVRQAPGKGLEWVSAISDSGGSTYYADSVKGRFTISRDNSKNTLYLQMNSLRAEDTAVYYCARYWPMDIWGQGTLVTVSS
VL: EIVLTQSPGTLSLSPGERATLSCRASQSVSNLYLAWYQQKPGQAPRLLMYDASIRATGIPDRFSGSGSGTDFTLTISRLEPEDFAVYYCQQYQGWPLTFGQGTKVEIK
With B3, in the assay with hBCMA (human BCMA), the “ka Human” value stood at 1.69e+06 M⁻¹ s⁻¹ and the “kd Human” value amounted to 0.000126 s⁻¹. Also, in the assay on Cyno BCMA, the “ka Cyno” value worked out at 1.17e+06 M⁻¹ s⁻¹ and the “kd Cyno” value is 0.000185 s⁻¹.

B4: COMBO_Rd4_0.6 nM_C11: anti-BCMA antibody (antibody, V domains shown)
VH: EVQLLESGGGLVQPGGSLRLSCAASGFTFSSYPMSWVRQAPGKGLEWVSAALGSGGSTYYADSVKGRFTISRDNSKNTLYLQMNSLRAEDTAVYYCARYWPMSLWGQGTLVTVSS
VL: EIVLTQSPGTLSLSPGERATLSCRASQSVSVRYLAWYQQKPGQAPRLLMYDASIRATGIPDRFSGSGSGTDFTLTISRLEPEDFAVYYCQQYGSWPITFGQGTKVEIK
For B4, in the assay with hBCMA (human BCMA), the “ka Human” value is 5.11e+06 M⁻¹ s⁻¹ and the “kd Human” value was determined as 0.00106 s⁻¹. In the assay with Cyno BCMA, the “ka Cyno” value turned out to be 2.2e+06 M⁻¹ s⁻¹ and the “kd Cyno” value turned out to be 0.00423 s⁻¹.

B5: COMBO_Rd4_0.6 nM_C30: anti-BCMA antibody (antibody, V domains shown)
VH: EVQLLESGGGLVQPGGSLRLSCAASGFTFSSYPMSWVRQAPGKGLEWVSAIGGSGGSTYYADSVKGRFTISRDNSKNTLYLQMNSLRAEDTAVYYCARYWPMDSWGQGTLVTVSS
VL: EIVLTQSPGTLSLSPGERATLSCRASQSVSYMYLAWYQQKPGQAPRLLIYDASIRATGIPDRFSGSGSGTDFTLTISRLEPEDFAVYYCQQYKSWPLTFGQGTKVEIK
With B5, in the assay with hBCMA (human BCMA), the “ka Human” value was 4.35e+06 M⁻¹ s⁻¹ and the “kd Human” value stood at 0.000282 s⁻¹. In addition, in the assay with Cyno BCMA, the “ka Cyno” value was 1.68e+06 M⁻¹ s⁻¹ and the “kd Cyno” value came out at 0.000808 s⁻¹.

B6: A02_Rd4_0.6 nM_C09: anti-BCMA antibody (antibody, V domains shown)
VH: EVQLLESGGGLVQPGGSLRLSCAASGFTFSSYAMNWVRQAPGKGLEWVSAISDSGGSMWYADSVKGRFTISRDNSKNTLYLQMNSLRAEDTAVYYCARYWPMSLWGQGTLVTVSS
VL: EIVLTQSPGTLSLSPGERATLSCRASQSVSSSYLAWYQQKPGQAPRLLMYDASIRATGIPDRFSGSGSGTDFTLTISRLEPEDFAVYYCQQYQSWPLTFGQGTKVEIK
Regarding B6, in the assay with hBCMA (human BCMA), the “ka Human” value worked out at 5.5e+06 M⁻¹ s⁻¹ and the “kd Human” value is 9.75e-05 s⁻¹. In addition, in the assay on Cyno BCMA, the “ka Cyno” value was found to be 2.13e+06 M⁻¹ s⁻¹ and the “kd Cyno” value is 0.000174 s⁻¹.

B7: COMBO_Rd4_6 nM_C12: anti-BCMA antibody (antibody, V domains shown)
VH: EVQLLESGGGLVQPGGSLRLSCAASGFTFSSYPMSWVRQAPGKGLEWVSAALGSGGSTYYADSVKGRFTISRDNSKNTLYLQMNSLRAEDTAVYYCARYWPMDSWGQGTLVTVS
VL: EIVLTQSPGTLSLSPGERATLSCRASQSVSASYLAWYQQKPGQAPRLLMYDASIRATGIPDRFSGSGSGTDFTLTISRLEPEDFAVYYCQQYMSWPLTFGQGTKVEIK
In the case of B7, in the assay with hBCMA (human BCMA), the “ka Human” value was found to be 1.38e+07 M⁻¹ s⁻¹ and the “kd Human” value is 0.00027 s⁻¹. Moreover, in the assay on Cyno BCMA, the “ka Cyno” value came to 3.29e+06 M⁻¹ s⁻¹ and the “kd Cyno” value was 0.000486 s⁻¹.

B8: A02_Rd4_0.6 nM_C06: anti-BCMA antibody (antibody, V domains shown)
VH: EVQLLESGGGLVQPGGSLRLSCAASGFTFSSYAMNWVRQAPGKGLEWVSAISDSGGSAWYADSVKGRFTISRDNSKNTLYLQMNSLRAEDTAVYYCARYWPMSLWGQGTLVTVSS
VL: EIVLTQSPGTLSLSPGERATLSCRASQSVSVLYLAWYQQKPGQAPRLLMYDASIRATGIPDRFSGSGSGTDFTLTISRLEPEDFAVYYCQQYQRWPLTFGQGTKVEIK
Consider B8, for which, in the assay with hBCMA (human BCMA), the dissociation constant Kd turned out to be 0.021 nM, the “ka Human” value was found to be 3.49e+06 M⁻¹ s⁻¹ and the “kd Human” value turned out to be 7.37e-05 s⁻¹. At Cyno BCMA, the Kd is 0.058 nM, the “ka Cyno” value is 1.81e+06 M⁻¹ s⁻¹ and the “kd Cyno” value amounted to 0.000105 s⁻¹.

B9: COMBO_Rd4_6 nM_C02: anti-BCMA antibody (antibody, V domains shown)
VH: EVQLLESGGGLVQPGGSLRLSCAASGFTFSSYAMNWVRQAPGKGLEWVSAISDSGGFVYYADSVKGRFTISRDNSKNTLYLQMNSLRAEDTAVYYCARYWPMDSWGQGTLVTVSS
VL: EIVLTQSPGTLSLSPGERATLSCRASQSVSSSYLAWYQQKPGQAPRLLMYDASIRATGIPDRFSGSGSGTDFTLTISRLEPEDFAVYYCQQYEFWPLTFGQGTKVEIK
On to B9, for which, in the assay with hBCMA (human BCMA), the “ka Human” value was 1.05e+06 M⁻¹ s⁻¹ and the “kd Human” value is 0.000443 s⁻¹. Further, in the assay with Cyno BCMA, the “ka Cyno” value came to 795000 M⁻¹ s⁻¹ and the “kd Cyno” value turned out to be 0.00136 s⁻¹.

B10: COMBO_Rd4_6 nM_C07: anti-BCMA antibody (antibody, V domains shown)
VH: EVQLLESGGGLVQPGGSLRLSCAASGFTFSSYPMSWVRQAPGKGLEWVSAIGGSGGSLPYADSVKGRFTISRDNSKNTLYLQMNSLRAEDTAVYYCARYWPMADWGQGTLVTVSS
VL: EIVLTQSPGTLSLSPGERATLSCRASQPISSSYLAWYQQKPGQAPRLLMYDASIRATGIPDRFSGSGSGTDFTLTISRLEPEDFAVYYCQQYQGWPLTFGQGTKVEIK
With B10, in the assay with hBCMA (human BCMA), the “ka Human” value turned out to be 1.05e+07 M⁻¹ s⁻¹ and the “kd Human” value came to 0.000371 s⁻¹. For the same molecule, in the assay on Cyno BCMA, the “ka Cyno” value was 3.94e+06 M⁻¹ s⁻¹ and the “kd Cyno” value is 0.000934 s⁻¹.

B11: COMBO_Rd4_6 nM_C22: anti-BCMA antibody (antibody, V domains shown)
VH: EVQLLESGGGLVQPGGSLRLSCAASGFTFSSYAMNWVRQAPGKGLEWVSACLDSGGSTYYADSVKGRFTISRDNSKNTLYLQMNSLRAEDTAVYYCARYWPMDSWGQGTLVTVSS
VL: EIVLTQSPGTLSLSPGERATLSCRASQSVSSSYLAWYQQKPGQAPRLLMYDASIRATGIPDRFSGSGSGTDFTLTISRLEPEDFAVYYCQQYQGWPLTFGQGTKVEIK
With B11, in the assay with hBCMA (human BCMA), the “ka Human” value was 3.03e+06 M⁻¹ s⁻¹ and the “kd Human” value is 0.000775 s⁻¹. For the same molecule, in the assay with Cyno BCMA, the “ka Cyno” value is 1.7e+06 M⁻¹ s⁻¹ and the “kd Cyno” value was found to be 0.00165 s⁻¹.

B12: COMBO_Rd4_0.6 nM_C17: anti-BCMA antibody (antibody, V domains shown)
VH: EVQLLESGGGLVQPGGSLRLSCAASGFTFSSYPMSWVRQAPGKGLEWVSAIGGSGGSLPYADSVKGRFTISRDNSKNTLYLQMNSLRAEDTAVYYCARYWPMDIWGQGTLVTVSS
VL: EIVLTQSPGTLSLSPGERATLSCRASQGISSTYLAWYQQKPGQAPRLLMYDASIRATGIPDRFSGSGSGTDFTLTISRLEPEDFAVYYCQQYAYWPLTFGQGTKVEIK
For the molecule B12, in the assay with hBCMA (human BCMA), the “ka Human” value was found to be 8.68e+06 M⁻¹ s⁻¹ and the “kd Human” value was 0.000801 s⁻¹. Further, in the assay with Cyno BCMA, the “ka Cyno” value came to 3.06e+06 M⁻¹ s⁻¹ and the “kd Cyno” value was 0.00101 s⁻¹.

B13: COMBO_Rd4_0.6 nM_C05: anti-BCMA antibody (antibody, V domains shown)
VH: EVQLLESGGGLVQPGGSLRLSCAASGFTFSSYAMNWVRQAPGKGLEWVSAIGGSGGSTYYADSVKGRFTISRDNSKNTLYLQMNSLRAEDTAVYYCARYWPMSLWGQGTLVTVSS
VL: EIVLTQSPGTLSLSPGERATLSCRASQSVSSTYLAWYQQKPGQAPRLLMYDASIRATGIPDRFSGSGSGTDFTLTISRLEPEDFAVYYCQQYMSWPLTFGQGTKVEIK
Turning to B13, in the assay with hBCMA (human BCMA), the “ka Human” value amounted to 4.32e+06 M⁻¹ s⁻¹ and the “kd Human” value turned out to be 0.000497 s⁻¹. In addition, in the assay with Cyno BCMA, the “ka Cyno” value was found to be 1.94e+06 M⁻¹ s⁻¹ and the “kd Cyno” value amounted to 0.00172 s⁻¹.

B14: COMBO_Rd4_0.6 nM_C14: anti-BCMA antibody (antibody, V domains shown)
VH: EVQLLESGGGLVQPGGSLRLSCAASGFTFSSYPMSWVRQAPGKGLEWVSAIGGSGGSLPYADSVKGRFTISRDNSKNTLYLQMNSLRAEDTAVYYCARYWPMDIWGQGTLVTVSS
VL: EIVLTQSPGTLSLSPGERATLSCRASQSVSALYLAWYQQKPGQAPRLLMYDASIRATGIPDRFSGSGSGTDFTLTISRLEPEDFAVYYCQQYYGWPLTFGQGTKVEIK
For the molecule B14, in the assay with hBCMA (human BCMA), the “ka Human” value is 8.66e+06 M⁻¹ s⁻¹ and the “kd Human” value was 0.000328 s⁻¹. For the same molecule, in the assay with Cyno BCMA, the “ka Cyno” value was found to be 3.48e+06 M⁻¹ s⁻¹ and the “kd Cyno” value amounted to 0.000645 s⁻¹.

Broadly, the Kd is the constant that tells how readily two partners part at equilibrium. A higher Kd goes with a looser complex.
